How the values were obtained:
[1] = substrate: O=C(O)CI; assay: purified protein; type: biochemical, Zobellia galactanivorans; details: 20 °C, 1 mM HEPES, 1 mM EDTA, 20 mM sodium sulfate, 56 μM phenol red, pH 8.2 (initial), 0.3 mg/ml enzyme
[2] = substrate: O=C(O)CBr; assay: purified protein; type: biochemical, Zobellia galactanivorans; details: 20 °C, 1 mM HEPES, 1 mM EDTA, 20 mM sodium sulfate, 56 μM phenol red, pH 8.2 (initial), 0.3 mg/ml enzyme

B1: ZgHAD (Zobellia galactanivorans) (protein)
chain: MSAKVKKPELLIFDVNETLLDMGPLENAINESLNSEHAFSLWFRTLLHYSLTETLTGNYVDFGTIGKATLKMTMRKFGKNLSEDRLDAILGNIKKLPAHEDVKEGLKMLKEAQIKLVALSNSNGKLLNAQLQFAGLADYFDAIFSVEAVGRYKPELASYRAVLETMKVPAENTMMVAAHGWDILGAKRAGLRTAFVAREGHAIYPLDGTPELEAKTVLEVARTLLKN
notes: recombinant, pFO4 vector, E. coli BL21 (DE3); homodimer in solution
Work on B1 yielded a Km [1] of 310 µM and a Km [2] of 460 µM.

Reference: paper PMC8490876, “Functional Characterization of a L-2-Haloacid Dehalogenase From Zobellia galactanivorans Dsij^T Suggests a Role in Haloacetic Acid Catabolism and a Wide Distribution in Marine Environments” (Frontiers in Microbiology, 2021)
